Patent US20170233442

Target: T1, P3L (nucleolin RRM2-derived peptide) (UniProt P19338)
T1 sequence: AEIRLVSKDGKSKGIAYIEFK
Test: ITC
Settings: 20 mM MOPS pH 7.0, 300 mM NaCl, 25 C

For SCA2CAG22 RNA (unexpanded), which Kd (unexpanded repeat) is on record?
Its Kd is 17.3 µM.

Which Kd (unit inferred, uM from context) does the source give for SCA2CAG42 RNA here?
The Kd was 5.6 µM.

Which Kd (unit inferred, uM from context) does the source give for SCA2CAG55 RNA here?
Its Kd is 4.83 µM.

SCA2CAG72 RNA was tested. Which Kd (one-site model, CD also showed structural change on RNA addition (FIG. 2)) did it give?
Its Kd is 0.66 µM.
